Results as given in patent publication US20220401523A1.
Values belong to the molecule of their own block, whether it stands above or below them.

Assays:
[1] = target: human glucagon-like peptide-1 (GLP-1) receptor (human) (UniProt P43220); test: cell-based or functional assay
[2] = target: human FGFR1c (FGF receptor 1c isoform) together with human beta-Klotho (KLB) (human), P11362; test: cell-based or functional assay
human FGFR1c (FGF receptor 1c isoform) together with human beta-Klotho (KLB) (human), P11362, sequence (P11362 22-822, chain 1 of 2): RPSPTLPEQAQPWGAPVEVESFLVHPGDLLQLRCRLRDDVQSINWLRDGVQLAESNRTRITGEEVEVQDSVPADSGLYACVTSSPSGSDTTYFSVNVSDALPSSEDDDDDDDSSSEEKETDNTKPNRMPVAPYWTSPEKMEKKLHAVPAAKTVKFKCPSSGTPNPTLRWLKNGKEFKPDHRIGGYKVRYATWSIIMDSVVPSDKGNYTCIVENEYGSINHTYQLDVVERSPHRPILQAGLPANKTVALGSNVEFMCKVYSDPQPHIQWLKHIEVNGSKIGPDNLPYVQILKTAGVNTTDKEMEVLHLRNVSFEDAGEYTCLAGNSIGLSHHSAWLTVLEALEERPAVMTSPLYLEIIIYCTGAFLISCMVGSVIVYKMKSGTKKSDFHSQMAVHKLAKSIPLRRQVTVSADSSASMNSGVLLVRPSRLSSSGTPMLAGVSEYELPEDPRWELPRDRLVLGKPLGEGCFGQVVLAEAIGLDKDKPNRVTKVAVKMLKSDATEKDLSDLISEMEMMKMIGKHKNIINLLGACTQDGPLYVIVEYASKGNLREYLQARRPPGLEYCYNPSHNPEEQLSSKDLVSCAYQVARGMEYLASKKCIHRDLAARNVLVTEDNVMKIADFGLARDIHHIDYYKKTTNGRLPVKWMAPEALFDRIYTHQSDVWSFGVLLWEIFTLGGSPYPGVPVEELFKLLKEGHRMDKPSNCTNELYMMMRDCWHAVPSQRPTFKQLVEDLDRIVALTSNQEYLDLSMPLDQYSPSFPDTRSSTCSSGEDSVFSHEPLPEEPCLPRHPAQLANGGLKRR
human FGFR1c (FGF receptor 1c isoform) together with human beta-Klotho (KLB) (human), P11362, sequence (Q86Z14 whole entry, chain 2 of 2, further chain, canonical isoform): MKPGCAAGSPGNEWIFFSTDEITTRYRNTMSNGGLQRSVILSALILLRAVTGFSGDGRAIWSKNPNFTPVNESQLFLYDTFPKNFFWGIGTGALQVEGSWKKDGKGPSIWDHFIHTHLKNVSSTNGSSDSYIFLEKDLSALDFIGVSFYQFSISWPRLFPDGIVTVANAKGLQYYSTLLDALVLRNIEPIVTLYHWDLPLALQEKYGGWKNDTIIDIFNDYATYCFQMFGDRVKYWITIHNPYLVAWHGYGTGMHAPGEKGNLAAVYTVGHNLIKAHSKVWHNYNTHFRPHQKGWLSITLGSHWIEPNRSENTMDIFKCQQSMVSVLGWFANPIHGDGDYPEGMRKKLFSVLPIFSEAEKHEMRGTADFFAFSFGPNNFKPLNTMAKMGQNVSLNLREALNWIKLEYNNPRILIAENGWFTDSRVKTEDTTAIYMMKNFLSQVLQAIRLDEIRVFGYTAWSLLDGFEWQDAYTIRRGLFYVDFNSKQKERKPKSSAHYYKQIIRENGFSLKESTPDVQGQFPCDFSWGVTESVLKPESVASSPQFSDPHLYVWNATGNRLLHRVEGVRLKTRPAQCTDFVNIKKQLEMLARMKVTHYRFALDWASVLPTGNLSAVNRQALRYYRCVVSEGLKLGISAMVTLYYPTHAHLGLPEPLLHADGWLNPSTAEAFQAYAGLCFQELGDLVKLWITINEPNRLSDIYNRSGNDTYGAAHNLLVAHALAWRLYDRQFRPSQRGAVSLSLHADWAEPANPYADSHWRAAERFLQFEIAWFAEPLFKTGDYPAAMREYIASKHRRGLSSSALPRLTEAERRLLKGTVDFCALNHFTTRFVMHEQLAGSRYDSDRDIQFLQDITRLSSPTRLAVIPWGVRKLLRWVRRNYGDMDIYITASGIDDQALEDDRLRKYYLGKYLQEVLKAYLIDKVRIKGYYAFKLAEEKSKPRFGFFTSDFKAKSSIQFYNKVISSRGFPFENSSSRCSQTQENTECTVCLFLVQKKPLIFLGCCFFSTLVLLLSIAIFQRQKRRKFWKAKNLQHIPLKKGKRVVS

UniProt P43220, sequence (P43220 24-463): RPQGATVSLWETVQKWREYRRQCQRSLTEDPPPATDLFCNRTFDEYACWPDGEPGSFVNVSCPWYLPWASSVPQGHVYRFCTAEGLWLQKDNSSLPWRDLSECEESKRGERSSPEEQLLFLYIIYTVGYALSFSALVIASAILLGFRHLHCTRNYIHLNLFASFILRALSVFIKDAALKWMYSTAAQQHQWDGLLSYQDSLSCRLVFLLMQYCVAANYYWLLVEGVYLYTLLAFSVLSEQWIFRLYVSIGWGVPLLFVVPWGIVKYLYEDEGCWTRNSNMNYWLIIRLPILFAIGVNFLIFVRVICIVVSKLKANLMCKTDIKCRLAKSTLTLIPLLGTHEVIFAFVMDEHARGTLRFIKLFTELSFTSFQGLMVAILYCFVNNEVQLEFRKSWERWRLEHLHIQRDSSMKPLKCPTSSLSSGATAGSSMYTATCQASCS

Molecule: GLP1(7-36) A8G, V16L, S18I, Y19Q, E21D, G22E, Q23E, A25V, K26R, E27L, A30E, V33E, K34A, G35T, R36G, (Fc fusion)
EC50 of cAMP response (HTRF) [1]: 0.675 nM
Ratio GLP-1R agonistic activity: native GLP-1(7-36)/tested GLP-1R agonist [1]: 877 fold

Molecule: GLP1(7-36) A8G, V16L, S18I, Y19Q, E21D, G22E, Q23E, A25V, K26R, E27L, A30E, V33L, K34A, G35T, R36G, (Fc fusion)
EC50 of cAMP response (HTRF) [1]: 0.0605 nM
Ratio GLP-1R agonistic activity: native GLP-1(7-36)/tested GLP-1R agonist [1]: 78.6 fold

Molecule: GLP1(7-36) A8G, V16L, S18K, Y19Q, E21D, G22E, Q23E, A25V, K26Q, E27L, A30E, V33L, K34A, G35T, R36G, (Fc fusion)
EC50 of cAMP response (HTRF) [1]: 0.173 nM
Ratio GLP-1R agonistic activity: native GLP-1(7-36)/tested GLP-1R agonist [1]: 225 fold

Molecule: GLP1(7-36) A8G, V16L, S18K, Y19Q, G22E, Q23E, A25V, K26Q, E27L, A30E, V33E, K34A, G35T, R36G, insPSS (Fc fusion)
EC50 of cAMP response (HTRF) [1]: 0.134 nM
Ratio GLP-1R agonistic activity: native GLP-1(7-36)/tested GLP-1R agonist [1]: 174 fold

pERK ICW EC50 (downstream activation of the MAP kinase ERK1/2, In-Cell Western) [2]: 0.18 nmol/L
pFGFR ICW EC50 (FGF21 receptor autophosphorylation, In-Cell Western) [2]: 4.8 nmol/L
B1: mature human wild-type FGF21, FGF21(His29-Ser209), Q9NSA1 29-209 (ligand)
chain: HPIPDSSPLLQFGGQVRQRYLYTDDAQQTEAHLEIREDGTVGGAADQSPESLLQLKALKPGVIQILGVKTSRFLCQRPDGALYGSLHFDPEACSFRELLLEDGYNVYQSEAHGLPLHLPGNKSPHRDPAPRGPARFLPLPGLPPAPPEPPGILAPQPPDVGSSDPLSMVGPSQGRSPSYAS
